The record followed here is patent publication US20260098075A1.

To fix the notation:
B1: R11 CAR against ROR1 with Spacer 4 (protein)
chain: QSVKESEGDLVTPAGNLTLTCTASGSDINDYPISWVRQAPGKGLEWIGFINSGGSTWYASWVKGRFTISRTSTTVDLKMTSLTTDDTATYFCARGYSTYYGDFNIWGPGTLVTISSGGGGSGGGGSGGGGSELVMTQTPSSTSGAVGGTVTINCQASQSIDSNLAWFQQKPGQPPTLLIYRASNLASGVPSRFSGSRSGTEYTLTISGVQREDAATYYCLGGVGNVSYRTSFGGGTEVVVKTGGGGSGELKTPLGDTTHTCPRCPEPKSCDTPPPCPRCPEPKSCDTPPPCPRCPEPKSCDTPPPCPRCPAPMFWVLVVVGGVLACYSLLVTVAFIIFWVKRGRKKLLYIFKQPFMRPVQTTQEEDGCSCRFPEEEEGGCELRVKFSRSADAPAYQQGQNQLYNELNLGRREEYDVLDKRRGRDPEMGGKPRRKNPQEGLYNELQKDKMAEAYSEIGMKGERRRGKGHDGLYQGLSTATKDTYDALHMQALPPR
B2: 2A2 CAR against ROR1 with Spacer 28 (protein)
chain: QVQLQQSGAELVRPGASVTLSCKASGYTFSDYEMHWVIQTPVHGLEWIGAIDPETGGTAYNQKFKGKAILTADKSSSTAYMELRSLTSEDSAVYYCTGYYDYDSFTYWGQGTLVTVSAGGGGSGGGGSGGGGSDIVMTQSQKIMSTTVGDRVSITCKASQNVDAAVAWYQQKPGQSPKLLIYSASNRYTGVPDRFTGSGSGTDFTLTISNMQSEDLADYFCQQYDIYPYTFGGGTKLEIKTGGGGSGSVCSRDFTPPMFWVLVVVGGVLACYSLLVTVAFIIFWVKRGRKKLLYIFKQPFMRPVQTTQEEDGCSCRFPEEEEGGCELRVKFSRSADAPAYQQGQNQLYNELNLGRREEYDVLDKRRGRDPEMGGKPRRKNPQEGLYNELQKDKMAEAYSEIGMKGERRRGKGHDGLYQGLSTATKDTYDALHMQALPPR
B3: 2A2 CAR against ROR1 with Spacer 21 (protein)
chain: QVQLQQSGAELVRPGASVTLSCKASGYTFSDYEMHWVIQTPVHGLEWIGAIDPETGGTAYNQKFKGKAILTADKSSSTAYMELRSLTSEDSAVYYCTGYYDYDSFTYWGQGTLVTVSAGGGGSGGGGSGGGGSDIVMTQSQKIMSTTVGDRVSITCKASQNVDAAVAWYQQKPGQSPKLLIYSASNRYTGVPDRFTGSGSGTDFTLTISNMQSEDLADYFCQQYDIYPYTFGGGTKLEIKTGGGGSGVPCPVPPMFWVLVVVGGVLACYSLLVTVAFIIFWVKRGRKKLLYIFKQPFMRPVQTTQEEDGCSCRFPEEEEGGCELRVKFSRSADAPAYQQGQNQLYNELNLGRREEYDVLDKRRGRDPEMGGKPRRKNPQEGLYNELQKDKMAEAYSEIGMKGERRRGKGHDGLYQGLSTATKDTYDALHMQALPPR
B4: R12 CAR with Spacer 1 (ROR1-specific R12 scFv, Gly-Ser linker, Spacer 1, CD28-derived transmembrane domain, 4-1BB costimulatory domain, CD3 zeta signaling … (protein)
chain: QEQLVESGGRLVTPGGSLTLSCKASGFDFSAYYMSWVRQAPGKGLEWIATIYPSSGKTYYATWVNGRFTISSDNAQNTVDLQMNSLTAADRATYFCARDSYADDGALFNIWGPGTLVTISSGGGGSGGGGSGGGGSELVLTQSPSVSAALGSPAKITCTLSSAHKTDTIDWYQQLQGEAPRYLMQVQSDGSYTKRPGVPDRFSGSSSGADRYLIIPSVQADDEADYYCGADYIGGYVFGGGTQLTVTGGGGSGKPCPPCKCPMFWVLVVVGGVLACYSLLVTVAFIIFWVKRGRKKLLYIFKQPFMRPVQTTQEEDGCSCRFPEEEEGGCELRVKFSRSADAPAYQQGQNQLYNELNLGRREEYDVLDKRRGRDPEMGGKPRRKNPQEGLYNELQKDKMAEAYSEIGMKGERRRGKGHDGLYQGLSTATKDTYDALHMQALPPR
B5: 2A2 CAR against ROR1 with Spacer 13 (protein)
chain: QVQLQQSGAELVRPGASVTLSCKASGYTFSDYEMHWVIQTPVHGLEWIGAIDPETGGTAYNQKFKGKAILTADKSSSTAYMELRSLTSEDSAVYYCTGYYDYDSFTYWGQGTLVTVSAGGGGSGGGGSGGGGSDIVMTQSQKIMSTTVGDRVSITCKASQNVDAAVAWYQQKPGQSPKLLIYSASNRYTGVPDRFTGSGSGTDFTLTISNMQSEDLADYFCQQYDIYPYTFGGGTKLEIKTGGGGSGPCPRCPAPMFWVLVVVGGVLACYSLLVTVAFIIFWVKRGRKKLLYIFKQPFMRPVQTTQEEDGCSCRFPEEEEGGCELRVKFSRSADAPAYQQGQNQLYNELNLGRREEYDVLDKRRGRDPEMGGKPRRKNPQEGLYNELQKDKMAEAYSEIGMKGERRRGKGHDGLYQGLSTATKDTYDALHMQALPPR
B6: R12 CAR with Spacer 15 (protein)
chain: QEQLVESGGRLVTPGGSLTLSCKASGFDFSAYYMSWVRQAPGKGLEWIATIYPSSGKTYYATWVNGRFTISSDNAQNTVDLQMNSLTAADRATYFCARDSYADDGALFNIWGPGTLVTISSGGGGSGGGGSGGGGSELVLTQSPSVSAALGSPAKITCTLSSAHKTDTIDWYQQLQGEAPRYLMQVQSDGSYTKRPGVPDRFSGSSSGADRYLIIPSVQADDEADYYCGADYIGGYVFGGGTQLTVTGGGGSGPPKPKDTMFWVLVVVGGVLACYSLLVTVAFIIFWVKRGRKKLLYIFKQPFMRPVQTTQEEDGCSCRFPEEEEGGCELRVKFSRSADAPAYQQGQNQLYNELNLGRREEYDVLDKRRGRDPEMGGKPRRKNPQEGLYNELQKDKMAEAYSEIGMKGERRRGKGHDGLYQGLSTATKDTYDALHMQALPPR
B7: R12 CAR with Spacer 21 (protein)
chain: QEQLVESGGRLVTPGGSLTLSCKASGFDFSAYYMSWVRQAPGKGLEWIATIYPSSGKTYYATWVNGRFTISSDNAQNTVDLQMNSLTAADRATYFCARDSYADDGALFNIWGPGTLVTISSGGGGSGGGGSGGGGSELVLTQSPSVSAALGSPAKITCTLSSAHKTDTIDWYQQLQGEAPRYLMQVQSDGSYTKRPGVPDRFSGSSSGADRYLIIPSVQADDEADYYCGADYIGGYVFGGGTQLTVTGGGGSGVPCPVPPMFWVLVVVGGVLACYSLLVTVAFIIFWVKRGRKKLLYIFKQPFMRPVQTTQEEDGCSCRFPEEEEGGCELRVKFSRSADAPAYQQGQNQLYNELNLGRREEYDVLDKRRGRDPEMGGKPRRKNPQEGLYNELQKDKMAEAYSEIGMKGERRRGKGHDGLYQGLSTATKDTYDALHMQALPPR

The test deals with human ROR1 (tyrosine-protein kinase transmembrane receptor ROR1) (human), Q01973. Nature of the test: cell-based or functional assay.
Sequence of human ROR1 (tyrosine-protein kinase transmembrane receptor ROR1) (human), Q01973 (Q01973 30-937): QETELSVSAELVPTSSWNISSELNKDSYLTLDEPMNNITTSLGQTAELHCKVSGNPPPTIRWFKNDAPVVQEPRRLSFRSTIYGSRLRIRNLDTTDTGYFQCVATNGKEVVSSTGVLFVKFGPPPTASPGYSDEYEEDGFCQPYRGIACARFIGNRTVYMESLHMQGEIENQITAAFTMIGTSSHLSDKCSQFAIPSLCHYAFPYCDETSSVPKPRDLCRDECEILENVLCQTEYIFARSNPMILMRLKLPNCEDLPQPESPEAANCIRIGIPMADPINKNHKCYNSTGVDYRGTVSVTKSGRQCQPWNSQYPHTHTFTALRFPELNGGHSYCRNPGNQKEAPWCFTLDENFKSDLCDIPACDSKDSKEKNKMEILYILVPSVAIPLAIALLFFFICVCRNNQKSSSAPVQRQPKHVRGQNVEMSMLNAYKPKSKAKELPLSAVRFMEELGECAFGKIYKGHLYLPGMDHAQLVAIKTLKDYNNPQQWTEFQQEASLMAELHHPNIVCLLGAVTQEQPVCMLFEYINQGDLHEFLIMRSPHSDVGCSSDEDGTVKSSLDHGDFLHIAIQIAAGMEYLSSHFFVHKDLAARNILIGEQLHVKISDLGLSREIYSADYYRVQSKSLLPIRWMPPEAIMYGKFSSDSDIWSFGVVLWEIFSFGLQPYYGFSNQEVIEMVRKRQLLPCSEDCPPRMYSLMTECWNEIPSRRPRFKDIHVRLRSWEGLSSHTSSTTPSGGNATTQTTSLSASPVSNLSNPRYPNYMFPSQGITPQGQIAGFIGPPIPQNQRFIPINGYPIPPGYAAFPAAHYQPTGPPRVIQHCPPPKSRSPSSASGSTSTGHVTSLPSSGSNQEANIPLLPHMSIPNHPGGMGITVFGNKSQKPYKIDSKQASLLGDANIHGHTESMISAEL
In turn, B1 had an A549 IFNg, donor 5018 of 37000; an A549 IFNg, donor 7811 of 46200; an A549 IL-2, donor 5018 of 5; an A549 IL-2, donor 7811 of 26. Further, the A549 normalized AUC, donor 5018 turned out to be 59.1; the A549 normalized AUC, donor 7811 was found to be 54.6; the H1975 IFNg, donor 5018 came to 9130; the H1975 IFNg, donor 7811 stood at 15900. The same molecule registered an H1975 IL-2, donor 5018 of 1; an H1975 IL-2, donor 7811 of 4; an H1975 normalized AUC, donor 5018 of 94.5; an H1975 normalized AUC, donor 7811 of 83.1.

For the molecule B2, the A549 IFNg, donor 2089 came out at 49900; the A549 IFNg, donor 5018 was determined as 34200; the A549 IL-2, donor 2089 is 1; the A549 IL-2, donor 5018 worked out at 2. This molecule yielded an A549 normalized AUC, donor 2089 of 43.6; an A549 normalized AUC, donor 5018 of 61; an H1975 IFNg, donor 2089 of 78300; an H1975 IFNg, donor 5018 of 58100. For the same molecule, the H1975 IL-2, donor 2089 was found to be 1; the H1975 IL-2, donor 5018 stood at 8; the H1975 normalized AUC, donor 2089 came to 39.5; the H1975 normalized AUC, donor 5018 came to 44.3.

As for B3, the A549 IFNg, donor 2089 worked out at 55400; the A549 IFNg, donor 5018 came out at 41300; the A549 IL-2, donor 2089 was 1; the A549 IL-2, donor 5018 was found to be 3. Moreover, the A549 normalized AUC, donor 2089 was 38; the A549 normalized AUC, donor 5018 stood at 58.9; the H1975 IFNg, donor 2089 stood at 78000; the H1975 IFNg, donor 5018 turned out to be 61900. For the same molecule, the H1975 IL-2, donor 2089 stood at 2; the H1975 IL-2, donor 5018 amounted to 13; the H1975 normalized AUC, donor 2089 came out at 39.4; the H1975 normalized AUC, donor 5018 amounted to 43.2.

Consider B4, for which the A549 IFNg, donor 2735 was determined as 8940; the A549 IFNg, donor 5018 is 4350; the A549 IL-2, donor 2735 amounted to 4; the A549 IL-2, donor 5018 was 0. The A549 normalized AUC, donor 2735 is 67.6; the A549 normalized AUC, donor 5018 stood at 80.9; the H1975 IFNg, donor 2735 was 15700; the H1975 IFNg, donor 5018 is 4850. This molecule showed an H1975 IL-2, donor 2735 of 10; an H1975 IL-2, donor 5018 of 0; an H1975 normalized AUC, donor 2735 of 67.6; an H1975 normalized AUC, donor 5018 of 68.8.

B5: the A549 IFNg, donor 2089 was found to be 46600; the A549 IFNg, donor 5018 worked out at 38900; the A549 IL-2, donor 2089 came out at 1; the A549 IL-2, donor 5018 was found to be 3. The A549 normalized AUC, donor 2089 was 42; the A549 normalized AUC, donor 5018 was determined as 61; the H1975 IFNg, donor 2089 was determined as 67100; the H1975 IFNg, donor 5018 worked out at 54300. The H1975 IL-2, donor 2089 came to 1; the H1975 IL-2, donor 5018 turned out to be 14; the H1975 normalized AUC, donor 2089 turned out to be 37.9; the H1975 normalized AUC, donor 5018 turned out to be 43.2.

In the case of B6, the A549 IFNg, donor 2735 worked out at 13800; the A549 IFNg, donor 5018 is 7610; the A549 IL-2, donor 2735 was found to be 8; the A549 IL-2, donor 5018 was 9. The A549 normalized AUC, donor 2735 was 64; the A549 normalized AUC, donor 5018 was 81.2; the H1975 IFNg, donor 2735 worked out at 16900; the H1975 IFNg, donor 5018 was 4320. Besides, the H1975 IL-2, donor 2735 amounted to 17; the H1975 IL-2, donor 5018 was 10; the H1975 normalized AUC, donor 2735 stood at 63; the H1975 normalized AUC, donor 5018 was determined as 75.

For the molecule B7, the A549 IFNg, donor 2735 stood at 14100; the A549 IFNg, donor 5018 was determined as 5000; the A549 IL-2, donor 2735 was 7; the A549 IL-2, donor 5018 came out at 8. Moreover, the A549 normalized AUC, donor 2735 was found to be 66.3; the A549 normalized AUC, donor 5018 came to 85; the H1975 IFNg, donor 2735 was 23200; the H1975 IFNg, donor 5018 worked out at 2650. In addition, the H1975 IL-2, donor 2735 was determined as 26; the H1975 IL-2, donor 5018 was 7; the H1975 normalized AUC, donor 2735 amounted to 61.5; the H1975 normalized AUC, donor 5018 amounted to 77.4.
